Experimental data: patent US20060073508A1 (published 2006)

Target: GRK2 (βARK1)
Assay: cell-based or functional assay

agonist-promoted whole cell phosphorylation of the receptor (10 µM norepinephrine): 5.84 fold increase
B1: hemagglutinin epitope-tagged wild-type human alpha-2B adrenergic receptor (receptor)
chain: YPYDVPDYAMDHQDPYSVQATAAIAAAITFLILFTIFGNALVILAVLTSRSLRAPQNLFLVSLAAADILVATLIIPFSLANELLGYWYFRRTWCEVYLALDVLFCTSSIVHLCAISLDRYWAVSRALEYNSKRTPRRIKCIILTVWLIAAVISLPPLIYKGDQGPQPRGRPQCKLNQEAWYILASSIGSFFAPCLIMILVYLRIYLIAKRSNRRGPRAKGGPGQGESKQPRPDHGGALASAKLPALASVASAREVNGHSKSTGEKEEGETPEDTGTRALPPSWAALPNSGQGQKEGVCGASPEDEAEEEEEEEEEEEECEPQAVPVSPASACSPPLQQPQGSRVLATLRGQVLLGRGVGAIGGQWWRRRAQLTREKRFTFVLAVVIGVFVLCWFPFFFSYSLGAICPKHCKVPHGLFQFFFWIGYCNSSLNPVIYTIFNQDFRRAFRRILCRPWTQTAW
